Laboratory results published in the supplement of paper PMC9732359.
± gives the uncertainty stated by the source.

Assay: protein stability index of a GFP-peptide fusion (yeast GPS) (PSI 1-4); higher = more stable; sorted into four equal gates, so the index is relative within each strain
In short: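 For each peptide, the protein stability index sums the read frequency in every gate after multiplying it by the gate number. Read frequencies came from plasmids that were PCR-amplified from each gate and Illumina-sequenced, with reads assigned to strains by barcodes. The gates were four equal bins of GFP/Cherry fluorescence ratio applied to mid-log yeast in leucine-free medium carrying a pooled library of tiled 17-residue yeast protein peptides fused downstream of GFP on a Cherry-expressing plasmid.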

Row | Sequence | protein stability index (doa10∆) | protein stability index (pdr5∆) | protein stability index (san1∆) | protein stability index (ubr1∆)
1 | RSRYRREIDALKKQLHV [YIL149C/MLP2] | 3.24 ± 0.074 | 3.16 ± 0.05 | 3.23 ± 0.045 | 3.2 ± 0.036
2 | RGLTPQEFFFHAMGGRE [RPO21] | 2.32 ± 0.05 | 2.42 ± 0.054 | 2.2 ± 0.074 | 2.35 ± 0.046
3 | DSTAVALEEGLNEEAVI [YJL039C/NUP192] | 3.08 ± 0.084 | 3.12 ± 0.04 | 2.68 ± 0.058 | 2.98 ± 0.05
4 | EDAKLKTDLELLVERLK [RPN1] | 1.24 ± 0.074 | 1.19 ± 0.049 | 1.29 ± 0.14 | 1.51 ± 0.073
5 | KVTLNKETQQYELEFDT [BRR2] | 3.13 ± 0.058 | 3.01 ± 0.056 | 3.15 ± 0.035 | 3.19 ± 0.038
6 | NDITNLQLSKTPLSIKI [SRB8] | 2.58 ± 0.062 | 2.52 ± 0.069 | 2.81 ± 0.056 | 2.77 ± 0.051
7 | LSLTLNTHYHADYRLIL [SNF2] | 2.83 ± 0.077 | 2.98 ± 0.08 | 2.75 ± 0.1 | 2.65 ± 0.073
8 | NISTNTNIHEPQYINYS [SSN2] | 3.17 ± 0.067 | 2.98 ± 0.078 | 2.74 ± 0.069 | 2.97 ± 0.078
9 | KEEFSSAENRDEKDYLT [CSE2] | 2.79 ± 0.083 | 2.85 ± 0.086 | 2.65 ± 0.065 | 2.99 ± 0.12
10 | EQKWLIYDKKDHKYVCT [SRB8] | 2.64 ± 0.29 | 2.33 ± 0.17 |  | 3.23 ± 0.22
11 | IQWYKSLLEKDIDAVNG [ISW2] | 2.73 ± 0.085 | 3.02 ± 0.075 | 2.81 ± 0.2 | 2.82 ± 0.055
12 | PTDSSKILQKRSISKEL [SIR3] | 2.76 ± 0.066 | 2.98 ± 0.086 | 3.02 ± 0.065 | 2.85 ± 0.081
13 | VVNQPTGKIVDVVGTLS [FAS1] | 3.1 ± 0.12 | 3.49 ± 0.12 | 3.49 ± 0.092 | 3.11 ± 0.061
14 | IPYSRNAPAWFKLSSES [RPS13] | 1.93 ± 0.058 | 1.92 ± 0.045 | 2.12 ± 0.074 | 2.44 ± 0.052
15 | GKEFGDVSVKMGNTKVH [RRP45] | 1.38 ± 0.073 | 1.53 ± 0.083 | 2.25 ± 0.069 | 1.95 ± 0.1
16 | QQFNLHEILSEPAIEEE [MED1] | 2.94 ± 0.15 | 3.1 ± 0.12 | 2.98 ± 0.17 | 3.26 ± 0.13
17 | TLGNQMLSAHNIIESIA [YJR042W/NUP85] | 2.33 ± 0.097 | 2.58 ± 0.073 | 2.53 ± 0.14 | 2.79 ± 0.072
18 | ASITPYKLVNKNKENNT [RPN4] | 1.08 ± 0.078 | 2.28 ± 0.092 | 2.48 ± 0.12 | 2.11 ± 0.07
19 | DEIDAALDFRNVSIVAN [SMC4] | 1.75 ± 0.056 | 1.91 ± 0.05 | 2.03 ± 0.076 | 1.54 ± 0.051
20 | EERFSELFKGYLADDID [RPL5] | 3.05 ± 0.29 | 3.27 ± 0.24 | 3.3 ± 0.17 | 3.01 ± 0.28
21 | HGDAAVLLVEKYGAEYD [NAS6] | 1.94 ± 0.21 |  | 2.96 ± 0.22 | 3.04 ± 0.19
22 | WVNNPKKRFTPHTVIRR [YDL088C/ASM4] | 3.42 ± 0.23 |  |  | 
23 | TAVNGIDTDLFGAPNNP [YGL172W/NUP49] | 3.1 ± 0.083 | 3.23 ± 0.08 | 3.25 ± 0.058 | 3.19 ± 0.053
24 | TLLSPKDNGMLIIDGQI [RPO21] | 2.59 ± 0.076 | 2.29 ± 0.078 | 2.81 ± 0.074 | 1.78 ± 0.058
25 | VSNPGDNPPPADNGEEY [MED2] | 3.14 ± 0.071 | 2.86 ± 0.1 | 3.13 ± 0.074 | 3.29 ± 0.11

Row | Sequence | protein stability index (doa10∆) | protein stability index (pdr5∆) | protein stability index (san1∆) | protein stability index (ubr1∆)
26 | GRAGVPMEVMGLMLGEF [RPN11] | 1.25 ± 0.17 | 2.12 ± 0.26 | 1.69 ± 0.18 | 
27 | AYKFEEVSKDLIAVYYS [RPB8] | 2.94 ± 0.071 | 3.14 ± 0.067 | 3.32 ± 0.045 | 3.11 ± 0.055
28 | PKRKRRLPVSEDTNTKP [YOR098C/NUP1] | 3.16 ± 0.11 | 2.82 ± 0.13 |  | 2.97 ± 0.073
29 | SDNISRKYEISFGKIYV [RPB2] | 2.79 ± 0.059 | 3.32 ± 0.073 | 2.78 ± 0.068 | 2.72 ± 0.072
30 | GRSRDGGLRFGEMERDC [RPB2] | 2.86 ± 0.29 |  | 2.83 ± 0.17 | 
31 | LPKAWISLAVEGEPVNS [COR1] | 1.38 ± 0.12 | 2.1 ± 0.14 | 2.84 ± 0.14 | 1.79 ± 0.1
32 | DPQPFLKHVLQLIFRQQ [SNU114] | 1.38 ± 0.042 | 2.02 ± 0.052 | 2.44 ± 0.064 | 2.51 ± 0.038
33 | LAKILARSIDVEKGVNP [ECM29] | 1.21 ± 0.09 | 1.21 ± 0.062 | 1.4 ± 0.17 | 1.07 ± 0.071
34 | SDDIAENDNLDNVSKNA [YCG1] | 3.39 ± 0.088 | 3.34 ± 0.14 | 3.25 ± 0.063 | 3.23 ± 0.085
35 | SKRSKIDIINKLILHAI [YML103C/NUP188] | 1.23 ± 0.13 | 1.23 ± 0.11 | 1.04 ± 0.13 | 1.1 ± 0.079
36 | AADVSAVDAKQLAQIRQ [YML103C/NUP188] | 2.25 ± 0.071 | 2.94 ± 0.073 | 3.25 ± 0.072 | 2.5 ± 0.057
37 | KKEANLFPEQQNKEIKA [RPL6A] | 3.38 ± 0.12 | 3.43 ± 0.088 | 3.21 ± 0.076 | 3.3 ± 0.093
38 | NPYNIVPQGKIVALTNA [SMC3] | 2.77 ± 0.14 | 2.78 ± 0.086 | 2.82 ± 0.12 | 3.11 ± 0.078
39 | GSKENYQELGSLQSSSQ [MED2] | 3.16 ± 0.15 | 3.45 ± 0.098 | 3.27 ± 0.071 | 3.12 ± 0.093
40 | DEEMTISQKLHDSILHS [RRP43] | 2.7 ± 0.052 | 2.74 ± 0.035 | 2.82 ± 0.03 | 2.92 ± 0.035
41 | LEIALFKYRKARLEPGT [RPO31] | 3.24 ± 0.17 | 1.69 ± 0.13 | 2.37 ± 0.12 | 2.85 ± 0.09
42 | LTLIFYDVLHDVFTINP [YML103C/NUP188] | 1.7 ± 0.071 | 2.09 ± 0.051 | 2.3 ± 0.071 | 2.55 ± 0.054
43 | LLISLNILFSLWKLLST [YLR018C/POM34] | 1.63 ± 0.071 | 1.25 ± 0.077 | 1.22 ± 0.21 | 1.18 ± 0.067
44 | SVMMQDSPASNEDDLTV [RPO31] | 3.02 ± 0.097 | 3.08 ± 0.083 | 2.78 ± 0.076 | 3.31 ± 0.12
45 | ESFKGLQPFWFRVNNAS [ECM29] | 2.05 ± 0.13 | 1.92 ± 0.11 |  | 2.09 ± 0.15
46 | QQAQSFVGKKNTIGSVH [SSN3] | 3.14 ± 0.1 | 3.12 ± 0.12 | 3.1 ± 0.081 | 2.98 ± 0.097
47 | SQKQTLIKKPLTVFYAI [SSN3] | 2.1 ± 0.089 | 2.13 ± 0.061 | 2.12 ± 0.085 | 2.01 ± 0.057
48 | GGLTKQIKEIKEVIELP [RPT6] | 3.74 ± 0.27 |  | 3.48 ± 0.27 | 
49 | HAYRDVLAQYHEAKERI [SNF6] | 2.98 ± 0.066 | 3.43 ± 0.071 | 3.09 ± 0.059 | 3.31 ± 0.051
